Assay results from IntAct's records for PubMed 31515488.

B1: Keratin, type II cytoskeletal 6A (Homo sapiens), P02538 (parent)
chain: MASTSTTIRSHSSSRRGFSANSARLPGVSRSGFSSVSVSRSRGSGGLGGACGGAGFGSRSLYGLGGSKRISIGGGSCAISGGYGSRAGGSYGFGGAGSGFGFGGGAGIGFGLGGGAGLAGGFGGPGFPVCPPGGIQEVTVNQSLLTPLNLQIDPTIQRVRAEEREQIKTLNNKFASFIDKVRFLEQQNKVLETKWTLLQEQGTKTVRQNLEPLFEQYINNLRRQLDSIVGERGRLDSELRGMQDLVEDFKNKYEDEINKRTAAENEFVTLKKDVDAAYMNKVELQAKADTLTDEINFLRALYDAELSQMQTHISDTSVVLSMDNNRNLDLDSIIAEVKAQYEEIAQRSRAEAESWYQTKYEELQVTAGRHGDDLRNTKQEIAEINRMIQRLRSEIDHVKKQCANLQAAIADAEQRGEMALKDAKNKLEGLEDALQKAKQDLARLLKEYQELMNVKLALDVEIATYRKLLEGEECRLNGEGVGQVNISVVQSTVSSGYGGASGVGSGLGLGGGSSYSYGSGLGVGGGFSSSSGRAIGGGLSSVGGGSSTIKYTTTSSSSRKSYKH
partner: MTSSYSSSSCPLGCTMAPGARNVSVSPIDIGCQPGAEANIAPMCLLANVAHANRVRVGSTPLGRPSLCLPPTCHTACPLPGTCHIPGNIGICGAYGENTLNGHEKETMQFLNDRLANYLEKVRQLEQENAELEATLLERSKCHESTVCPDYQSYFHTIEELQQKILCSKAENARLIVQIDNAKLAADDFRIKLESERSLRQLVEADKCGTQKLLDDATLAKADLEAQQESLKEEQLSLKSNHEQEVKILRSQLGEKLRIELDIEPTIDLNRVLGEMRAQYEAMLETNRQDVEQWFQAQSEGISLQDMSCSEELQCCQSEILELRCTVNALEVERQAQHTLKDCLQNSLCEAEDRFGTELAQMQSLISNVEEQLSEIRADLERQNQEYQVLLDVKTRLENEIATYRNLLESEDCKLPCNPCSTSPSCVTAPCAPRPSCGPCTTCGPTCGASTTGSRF
B2: Keratin, type I cytoskeletal 20 (Homo sapiens), P35900 (parent)
chain: MDFSRRSFHRSLSSSLQAPVVSTVGMQRLGTTPSVYGGAGGRGIRISNSRHTVNYGSDLTGGGDLFVGNEKMAMQNLNDRLASYLEKVRTLEQSNSKLEVQIKQWYETNAPRAGRDYSAYYRQIEELRSQIKDAQLQNARCVLQIDNAKLAAEDFRLKYETERGIRLTVEADLQGLNKVFDDLTLHKTDLEIQIEELNKDLALLKKEHQEEVDGLHKHLGNTVNVEVDAAPGLNLGVIMNEMRQKYEVMAQKNLQEAKEQFERQTAVLQQQVTVNTEELKGTEVQLTELRRTSQSLEIELQSHLSMKESLEHTLEETKARYSSQLANLQSLLSSLEAQLMQIRSNMERQNNEYHILLDIKTRLEQEIATYRRLLEGEDVKTTEYQLSTLEERDIKKTRKIKTVVQEVVDGKVVSSEVKEVEENI
B3: Glutathione S-transferase A2 (Homo sapiens), P09210 (parent)
chain: MAEKPKLHYSNIRGRMESIRWLLAAAGVEFEEKFIKSAEDLDKLRNDGYLMFQQVPMVEIDGMKLVQTRAILNYIASKYNLYGKDIKEKALIDMYIEGIADLGEMILLLPFSQPEEQDAKLALIQEKTKNRYFPAFEKVLKSHGQDYLVGNKLSRADIHLVELLYYVEELDSSLISSFPLLKALKTRISNLPTVKKFLQPGSPRKPPMDEKSLEESRKIFRF
partner: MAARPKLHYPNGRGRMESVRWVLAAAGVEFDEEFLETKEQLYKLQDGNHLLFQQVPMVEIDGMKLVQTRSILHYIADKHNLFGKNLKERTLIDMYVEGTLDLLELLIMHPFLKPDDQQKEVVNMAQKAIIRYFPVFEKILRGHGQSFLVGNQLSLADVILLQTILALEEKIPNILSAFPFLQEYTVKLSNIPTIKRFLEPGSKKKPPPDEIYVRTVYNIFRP
B4: Transcription factor 4 (Homo sapiens), P15884 (parent)
chain: MHHQQRMAALGTDKELSDLLDFSAMFSPPVSSGKNGPTSLASGHFTGSNVEDRSSSGSWGNGGHPSPSRNYGDGTPYDHMTSRDLGSHDNLSPPFVNSRIQSKTERGSYSSYGRESNLQGCHQQSLLGGDMDMGNPGTLSPTKPGSQYYQYSSNNPRRRPLHSSAMEVQTKKVRKVPPGLPSSVYAPSASTADYNRDSPGYPSSKPATSTFPSSFFMQDGHHSSDPWSSSSGMNQPGYAGMLGNSSHIPQSSSYCSLHPHERLSYPSHSSADINSSLPPMSTFHRSGTNHYSTSSCTPPANGTDSIMANRGSGAAGSSQTGDALGKALASIYSPDHTNNSFSSNPSTPVGSPPSLSAGTAVWSRNGGQASSSPNYEGPLHSLQSRIEDRLERLDDAIHVLRNHAVGPSTAMPGGHGDMHGIIGPSHNGAMGGLGSGYGTGLLSANRHSLMVGTHREDGVALRGSHSLLPNQVPVPQLPVQSATSPDLNPPQDPYRGMPPGLQGQSVSSGSSEIKSDDEGDENLQDTKSSEDKKLDDDKKDIKSITSNNDDEDLTPEQKAEREKERRMANNARERLRVRDINEAFKELGRMVQLHLKSDKPQTKLLILHQAVAVILSLEQQVRERNLNPKAACLKRREEEKVSSEPPPLSLAGPHPGMGDASNHMGQM
B5: Forkhead box protein P3 (Homo sapiens), Q9BZS1 (parent)
chain: MPNPRPGKPSAPSLALGPSPGASPSWRAAPKASDLLGARGPGGTFQGRDLRGGAHASSSSLNPMPPSQLQLPTLPLVMVAPSGARLGPLPHLQALLQDRPHFMHQLSTVDAHARTPVLQVHPLESPAMISLTPPTTATGVFSLKARPGLPPGINVASLEWVSREPALLCTFPNPSAPRKDSTLSAVPQSSYPLLANGVCKWPGCEKVFEEPEDFLKHCQADHLLDEKGRAQCLLQREMVQSLEQQLVLEKEKLSAMQAHLAGKMALTKASSVASSDKGSCCIVAAGSQGPVVPAWSGPREAPDSLFAVRRHLWGSHGNSTFPEFLHNMDYFKFHNMRPPFTYATLIRWAILEAPEKQRTLNEIYHWFTRMFAFFRNHPATWKNAIRHNLSLHKCFVRVESEKGAVWTVDELEFRKKRSQRPSRCSNPTPGP
B6: E3 ubiquitin-protein ligase CCNB1IP1 (Homo sapiens), Q9NPC3 (parent)
chain: MSLCEDMLLCNYRKCRIKLSGYAWVTACSHIFCDQHGSGEFSRSPAICPACNSTLSGKLDIVRTELSPSEEYKAMVLAGLRPEIVLDISSRALAFWTYQVHQERLYQEYNFSKAEGHLKQMEKIYTQQIQSKDVELTSMKGEVTSMKKVLEEYKKKFSDISEKLMERNRQYQKLQGLYDSLRLRNITIANHEGTLEPSMIAQSGVLGFPLGNNSKFPLDNTPVRNRGDGDGDFQFRPFFAGSPTAPEPSNSFFSFVSPSRELEQQQVSSRAFKVKRI
B7: Protein FAM9B (Homo sapiens), Q8IZU0 (parent)
chain: MAAWGKKHAGKDPVRDECEERNRFTETREEDVTDEHGEREPFAETDEHTGANTKKPEDTAEDLTAKRKRMKMDKTCSKTKNKSKHALRKKQLKRQKRDYIHSLKLLNVLEEYITDEQKEEEEEEGEEEELIRIFQEQQKKWQQYRSVRRERLKEMKLLRDQFVKALEDFEDLCDRVFSDEDSELDN
partner: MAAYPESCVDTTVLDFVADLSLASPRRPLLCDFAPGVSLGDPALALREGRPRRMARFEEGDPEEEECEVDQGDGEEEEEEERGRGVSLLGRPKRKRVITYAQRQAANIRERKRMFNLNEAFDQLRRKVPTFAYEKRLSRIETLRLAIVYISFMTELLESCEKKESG
B8: Progranulin (Homo sapiens), P28799 (parent)
chain: MWTLVSWVALTAGLVAGTRCPDGQFCPVACCLDPGGASYSCCRPLLDKWPTTLSRHLGGPCQVDAHCSAGHSCIFTVSGTSSCCPFPEAVACGDGHHCCPRGFHCSADGRSCFQRSGNNSVGAIQCPDSQFECPDFSTCCVMVDGSWGCCPMPQASCCEDRVHCCPHGAFCDLVHTRCITPTGTHPLAKKLPAQRTNRAVALSSSVMCPDARSRCPDGSTCCELPSGKYGCCPMPNATCCSDHLHCCPQDTVCDLIQSKCLSKENATTDLLTKLPAHTVGDVKCDMEVSCPDGYTCCRLQSGAWGCCPFTQAVCCEDHIHCCPAGFTCDTQKGTCEQGPHQVPWMEKAPAHLSLPDPQALKRDVPCDNVSSCPSSDTCCQLTSGEWGCCPIPEAVCCSDHQHCCPQGYTCVAEGQCQRGSEIVAGLEKMPARRASLSHPRDIGCDQHTSCPVGQTCCPSLGGSWACCQLPHAVCCEDRQHCCPAGYTCNVKARSCEKEVVSAQPATFLARSPHVGVKDVECGEGHFCHDNQTCCRDNRQGWACCPYRQGVCCADRRHCCPAGFRCAARGTKCLRREAPRWDAPLRDPALRQLL
B9: Scaffold protein ILK (Homo sapiens), Q13418 (parent)
chain: MDDIFTQCREGNAVAVRLWLDNTENDLNQGDDHGFSPLHWACREGRSAVVEMLIMRGARINVMNRGDDTPLHLAASHGHRDIVQKLLQYKADINAVNEHGNVPLHYACFWGQDQVAEDLVANGALVSICNKYGEMPVDKAKAPLRELLRERAEKMGQNLNRIPYKDTFWKGTTRTRPRNGTLNKHSGIDFKQLNFLTKLNENHSGELWKGRWQGNDIVVKVLKVRDWSTRKSRDFNEECPRLRIFSHPNVLPVLGACQSPPAPHPTLITHWMPYGSLYNVLHEGTNFVVDQSQAVKFALDMARGMAFLHTLEPLIPRHALNSRSVMIDEDMTARISMADVKFSFQCPGRMYAPAWVAPEALQKKPEDTNRRSADMWSFAVLLWELVTREVPFADLSNMEIGMKVALEGLRPTIPPGISPHVCKLMKICMNEDPAKRPKFDMIVPILEKMQDK
partner: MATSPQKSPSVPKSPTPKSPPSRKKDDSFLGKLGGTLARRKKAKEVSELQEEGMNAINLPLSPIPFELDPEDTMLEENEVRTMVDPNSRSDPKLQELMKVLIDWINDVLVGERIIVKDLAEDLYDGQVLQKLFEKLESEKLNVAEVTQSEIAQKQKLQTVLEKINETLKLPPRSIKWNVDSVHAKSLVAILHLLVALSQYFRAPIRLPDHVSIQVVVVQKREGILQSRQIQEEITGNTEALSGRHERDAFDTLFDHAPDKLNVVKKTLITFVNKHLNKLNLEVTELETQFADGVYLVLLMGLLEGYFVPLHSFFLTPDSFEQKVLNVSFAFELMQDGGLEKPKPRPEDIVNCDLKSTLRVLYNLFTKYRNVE

Variants of: B1
Settings: with krt38_human KRT38, O76015

| Variant | effect of a mutation on the interaction |
| --- | --- |
| P154S | with no effect |

Variants of: B2
Settings: with KRT15, P19012
Target sequence in this assay (P19012 whole entry): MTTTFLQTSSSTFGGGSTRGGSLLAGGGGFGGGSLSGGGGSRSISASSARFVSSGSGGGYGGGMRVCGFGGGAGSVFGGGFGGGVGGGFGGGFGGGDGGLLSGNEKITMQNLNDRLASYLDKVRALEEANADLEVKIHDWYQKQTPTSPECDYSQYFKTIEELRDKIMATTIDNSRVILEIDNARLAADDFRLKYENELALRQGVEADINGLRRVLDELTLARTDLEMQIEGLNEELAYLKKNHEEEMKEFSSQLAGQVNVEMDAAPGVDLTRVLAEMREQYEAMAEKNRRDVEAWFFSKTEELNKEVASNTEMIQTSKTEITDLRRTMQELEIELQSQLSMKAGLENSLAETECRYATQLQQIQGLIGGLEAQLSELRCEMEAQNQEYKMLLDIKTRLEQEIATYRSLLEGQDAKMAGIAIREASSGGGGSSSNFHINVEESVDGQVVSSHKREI

| Variant | effect of a mutation on the interaction |
| --- | --- |
| S129N | with no effect |
| S309Y | with no effect |

Variants of: B2
Settings: with vime_human VIM

| Variant | effect of a mutation on the interaction |
| --- | --- |
| S129N | with no effect |
| S309Y | with no effect |

Variants of: B3
Settings: with gsta4_human GSTA4, O15217

| Variant | effect of a mutation on the interaction |
| --- | --- |
| E210A | with no effect |

Variants of: B4
Settings: with defi6_human DEF6, Q9H4E7
Sequence of defi6_human DEF6, Q9H4E7 (Q9H4E7 whole entry): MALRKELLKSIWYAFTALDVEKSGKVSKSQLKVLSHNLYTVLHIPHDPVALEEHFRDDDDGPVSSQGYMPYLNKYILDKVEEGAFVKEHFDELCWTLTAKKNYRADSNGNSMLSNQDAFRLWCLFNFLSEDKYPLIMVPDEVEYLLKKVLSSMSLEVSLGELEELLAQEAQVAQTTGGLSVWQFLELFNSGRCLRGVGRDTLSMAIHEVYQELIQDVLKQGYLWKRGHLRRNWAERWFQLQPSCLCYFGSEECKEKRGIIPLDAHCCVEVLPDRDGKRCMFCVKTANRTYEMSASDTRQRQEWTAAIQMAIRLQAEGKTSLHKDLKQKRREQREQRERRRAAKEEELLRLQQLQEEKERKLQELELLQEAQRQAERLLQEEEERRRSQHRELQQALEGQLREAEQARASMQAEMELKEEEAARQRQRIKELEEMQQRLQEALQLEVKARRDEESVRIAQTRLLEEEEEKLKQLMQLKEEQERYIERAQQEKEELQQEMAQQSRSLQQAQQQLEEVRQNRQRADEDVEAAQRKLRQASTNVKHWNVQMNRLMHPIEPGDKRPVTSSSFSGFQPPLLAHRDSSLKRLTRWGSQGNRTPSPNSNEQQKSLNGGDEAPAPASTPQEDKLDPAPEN

| Variant | effect of a mutation on the interaction |
| --- | --- |
| N90S | with no effect |

Variants of: B5
Settings: with pr20e_human PRR20E

| Variant | effect of a mutation on the interaction |
| --- | --- |
| S59C | with no effect |

Variants of: B5
Settings: with rbpms_human RBPMS

| Variant | effect of a mutation on the interaction |
| --- | --- |
| S59C | with no effect |

Variants of: B6
Settings: with aapk2_human PRKAA2, P54646
Sequence of aapk2_human PRKAA2, P54646 (P54646 whole entry, looked up): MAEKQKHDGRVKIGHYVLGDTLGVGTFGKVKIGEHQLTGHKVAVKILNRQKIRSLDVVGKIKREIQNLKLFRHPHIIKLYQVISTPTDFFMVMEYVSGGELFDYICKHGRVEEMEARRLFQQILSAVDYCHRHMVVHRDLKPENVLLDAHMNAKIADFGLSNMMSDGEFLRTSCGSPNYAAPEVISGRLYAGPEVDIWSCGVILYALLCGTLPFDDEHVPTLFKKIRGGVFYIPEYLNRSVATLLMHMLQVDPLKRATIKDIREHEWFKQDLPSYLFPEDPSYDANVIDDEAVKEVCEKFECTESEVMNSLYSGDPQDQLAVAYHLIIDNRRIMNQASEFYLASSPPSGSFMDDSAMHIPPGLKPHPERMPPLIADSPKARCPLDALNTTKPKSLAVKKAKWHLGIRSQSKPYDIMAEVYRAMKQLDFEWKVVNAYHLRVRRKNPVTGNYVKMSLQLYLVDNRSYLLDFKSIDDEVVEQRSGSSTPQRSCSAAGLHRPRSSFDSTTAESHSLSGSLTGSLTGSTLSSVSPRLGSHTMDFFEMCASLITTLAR

| Variant | effect of a mutation on the interaction |
| --- | --- |
| F41L | with no effect |

Variants of: B6
Settings: with KRT15, P19012
Target sequence in this assay (P19012 whole entry): as the sequence (P19012 whole entry) above

| Variant | effect of a mutation on the interaction |
| --- | --- |
| F41L | with no effect |

Variants of: B6
Settings: with keap1_human KEAP1, Q14145
Sequence of keap1_human KEAP1, Q14145 (Q14145 whole entry): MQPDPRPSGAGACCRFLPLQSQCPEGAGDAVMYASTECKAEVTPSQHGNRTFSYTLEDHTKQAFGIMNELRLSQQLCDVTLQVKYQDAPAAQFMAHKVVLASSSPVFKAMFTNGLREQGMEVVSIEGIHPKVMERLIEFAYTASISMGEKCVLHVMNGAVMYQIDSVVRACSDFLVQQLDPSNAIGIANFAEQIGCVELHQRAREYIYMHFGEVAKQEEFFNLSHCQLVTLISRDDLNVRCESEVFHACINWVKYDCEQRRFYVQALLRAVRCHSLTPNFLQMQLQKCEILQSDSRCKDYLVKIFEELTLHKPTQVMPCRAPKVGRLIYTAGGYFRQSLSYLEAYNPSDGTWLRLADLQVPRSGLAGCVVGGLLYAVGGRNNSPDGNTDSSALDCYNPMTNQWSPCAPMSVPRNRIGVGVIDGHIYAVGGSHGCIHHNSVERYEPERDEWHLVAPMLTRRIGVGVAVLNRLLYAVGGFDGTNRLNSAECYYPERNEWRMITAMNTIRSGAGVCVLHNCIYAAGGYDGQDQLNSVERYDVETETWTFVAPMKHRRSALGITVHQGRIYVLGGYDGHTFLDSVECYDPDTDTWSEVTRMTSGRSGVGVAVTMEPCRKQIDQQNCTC

| Variant | effect of a mutation on the interaction |
| --- | --- |
| F41L | with no effect |

Variants of: B7
Settings: with fer3l_human FERD3L

| Variant | effect of a mutation on the interaction |
| --- | --- |
| R23H | with no effect |

Variants of: B8
Settings: with hxa1_human HOXA1, P49639
Sequence of hxa1_human HOXA1, P49639 (P49639 whole entry): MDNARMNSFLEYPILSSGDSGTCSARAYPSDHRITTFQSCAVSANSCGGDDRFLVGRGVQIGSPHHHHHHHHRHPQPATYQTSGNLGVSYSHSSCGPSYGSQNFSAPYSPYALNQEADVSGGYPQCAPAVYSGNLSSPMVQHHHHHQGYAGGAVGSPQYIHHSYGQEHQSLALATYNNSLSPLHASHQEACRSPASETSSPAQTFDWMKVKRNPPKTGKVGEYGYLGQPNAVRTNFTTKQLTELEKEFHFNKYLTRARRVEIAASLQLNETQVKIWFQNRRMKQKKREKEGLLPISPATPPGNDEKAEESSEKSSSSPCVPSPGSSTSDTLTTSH

| Variant | effect of a mutation on the interaction |
| --- | --- |
| G515A | with no effect |
| D536E | with no effect |
| R433W | with no effect |

Variants of: B8
Settings: with glrx3_human GLRX3, O76003
Sequence of glrx3_human GLRX3, O76003 (O76003 whole entry): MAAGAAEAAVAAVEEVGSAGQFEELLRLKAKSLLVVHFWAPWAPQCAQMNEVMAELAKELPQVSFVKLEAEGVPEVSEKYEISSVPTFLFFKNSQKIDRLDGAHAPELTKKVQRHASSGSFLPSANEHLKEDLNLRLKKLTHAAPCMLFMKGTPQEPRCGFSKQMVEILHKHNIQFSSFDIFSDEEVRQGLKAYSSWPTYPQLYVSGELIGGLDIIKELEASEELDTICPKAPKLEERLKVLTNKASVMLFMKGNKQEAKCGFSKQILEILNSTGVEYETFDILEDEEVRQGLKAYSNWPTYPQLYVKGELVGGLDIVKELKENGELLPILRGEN

| Variant | effect of a mutation on the interaction |
| --- | --- |
| G515A | with no effect |
| D536E | with no effect |
| R433W | with no effect |

Variants of: B8
Settings: with sgta_human SGTA

| Variant | effect of a mutation on the interaction |
| --- | --- |
| R19W | with no effect |

Variants of: B8
Settings: with otx1_human OTX1, P32242
Sequence of otx1_human OTX1, P32242 (P32242 whole entry): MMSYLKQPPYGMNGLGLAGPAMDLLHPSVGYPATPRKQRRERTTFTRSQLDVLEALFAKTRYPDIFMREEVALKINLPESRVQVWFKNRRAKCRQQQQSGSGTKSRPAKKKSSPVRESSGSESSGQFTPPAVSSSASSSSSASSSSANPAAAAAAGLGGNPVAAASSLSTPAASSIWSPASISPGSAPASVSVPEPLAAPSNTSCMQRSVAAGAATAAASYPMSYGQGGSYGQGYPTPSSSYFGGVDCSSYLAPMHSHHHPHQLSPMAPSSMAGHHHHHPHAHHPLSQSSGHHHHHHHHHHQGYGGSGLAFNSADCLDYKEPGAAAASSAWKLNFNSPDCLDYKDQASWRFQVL

| Variant | effect of a mutation on the interaction |
| --- | --- |
| R19W | with no effect |

Variants of: B9
Settings: with parva_human PARVA

| Variant | effect of a mutation on the interaction |
| --- | --- |
| R349H | disrupting interaction strength |
| L311I | with no effect |
| Q362H | with no effect |
